Source: patent EP2878677A1, “Activators of protein phosphatase 5” (Deutsches Zentrum für Neurodegenerative Erkrankungen e.V. …, priority 2013, dated 2015)

Molecular target: PPH-5 (C. elegans protein phosphatase 5) (C. elegans)
Assay: competition in sedimentation velocity AUC; 60 uM peptide, 300 nM YFP-Hsp90, 3 uM PPH-5; the peptide competes with YFP-Hsp90

sedimentation coefficient (s20,w) of the YFP-Hsp90/PPH-5 complex in presence of the peptide: 7.6 S
Binder: AEEDASRMEEVD [C-terminal Hsp90/DAF-21 peptide (…)]
